# Measurements taken from publication PMC10700433 (Cancer Immunology, Immunotherapy : CII, 2023).
# B1: mouse FcγRIII (receptor)
# chain: ALPKAVVKLDPPWIQVLKEDMVTLMCEGTHNPGNSSTQWFHNGRSIRSQVQASYTFKATVNDSGEYRCQMEQTRLSDPVDLGVISDWLLLQTPQRVFLEGETITLRCHSWRNKLLNRISFFHNEKSVRYHHYKSNFSIPKANHSHSGDYYCKGSLGSTQHQSKPVTITVQDPATTSSISLVWYHT
# modifications: soluble ectodomain assumed for BLI
# B2: mouse FcRn (receptor)
# chain 1: SETRPPLMYHLTAVSNPSTGLPSFWATGWLGPQQYLTYNSLRQEADPCGAWMWENQVSWYWEKETTDLKSKEQLFLEALKTLEKILNGTYTLQGLLGCELASDNSSVPTAVFALNGEEFMKFNPRIGNWTGEWPETEIVANLWMKQPDAARKESEFLLNSCPERLLGHLERGRRNLEWKEPPSMRLKARPGNSGSSVLTCAAFSFYPPELKFRFLRNGLASGSGNCSTGPNGDGSFHAWSLLEVKRGDEHHYQCQVEHEGLAQPLTVDLDSSARSS
# chain 2: IQKTPQIQVYSRHPPENGKPNILNCYVTQFHPPHIEIQMLKNGKKIPKVEMSDMSFSKDWSFYILAHTEFTPTETDTYACRVKHASMAEPKTVYWDRDM
# modifications: soluble Fcgrt/B2m heterodimer assumed by convention; B2m not given
# B3: mouse FcγRIIb (receptor)
# chain: THDLPKAVVKLEPPWIQVLKEDTVTLTCEGTHNPGNSSTQWFHNGRSIRSQVQASYTFKATVNDSGEYRCQMEQTRLSDPVDLGVISDWLLLQTPQLVFLEGETITLRCHSWRNKLLNRISFFHNEKSVRYHHYSSNFSIPKANHSHSGDYYCKGSLGRTLHQSKPVTITVQGPKSSRSLP
# modifications: soluble ectodomain assumed for BLI
# B4: mouse FcγRIV (receptor)
# chain: GLQKAVVNLDPKWVRVLEEDSVTLRCQGTFSPEDNSIKWFHNESLIPHQDANYVIQSARVKDSGMYRCQTALSTISDPVQLEVHMGWLLLQTTKWLFQEGDPIHLRCHSWQNRPVRKVTYLQNGKGKKYFHENSELLIPKATHNDSGSYFCRGLIGHNNKSSASFRISLGDPGSPSMFPPWHQ
# modifications: soluble ectodomain assumed for BLI
# B5: ATOR-1017 (evunzekibart) (antibody, V domains shown)
# VH: EVQLLESGGGLVQPGGSLRLSCAASGFNFGYSYMSWVRQAPGKGLEWVSSIGSTSSHTYYADSVKGRFTISRDNSKNTLYLQMNSLRAEDTAVYYCARVYSSPGIDYWGQGTLVTVSS
# VL: DIQMTQSPSSLSASVGDRVTITCRASQSIGSTLNWYQQKPGKAPKLLIYGASSLQSGVPSRFSGSGSGTDFTLTISSLQPEDFATYYCQQYYTWVPFTFGQGTKLEIK
# notes: the variable domains stand in the scFv of PDB 8OZ3 (heavy chain amino acids 2-118 modelled); human IgG4 constant part, S228P stabilized; the variable domains stand in the scFv of PDB 8OZ3 (light chain amino acids 2-110 modelled); light chain constant domain; IgG4 (S228P); variable domains from the human scFv library ALLIGATOR-GOLD, optimized
# Columns and labels:
# ATOR-1017 (evunzekibart) [1] = biological target: T1, ATOR-1017 (evunzekibart) (human); assay: BLI; Octet RED96; antibodies captured on FABG2 biosensor tips, recombinant Fcγ receptors in solution at suitable concentration ranges; association and dissociation at physiological pH; conditions: both partners purified
# T1 construct: as the VH of Wm14, which is in PDB 8OZ3 (amino acids 2-118 modelled); human IgG4 heavy chain constant region, S228P stabilised; as the VL of Wm14, which is in PDB 8OZ3 (amino acids 2-110 modelled); light chain constant region; IgG4 (S228P)
# ATOR-1017 (evunzekibart) [2] = biological target: T1, ATOR-1017 (evunzekibart); assay: BLI; Octet RED96; antibodies captured on FABG2 biosensor tips, recombinant FcRn in solution; association studied at physiological pH, dissociation at pH6; conditions: both partners purified
# [3] = biological target: T2, cynomolgus 4-1BB expressed on CHO-K1 cells (Macaca fascicularis, UniProt A9YYE7); assay: flow cytometry on cells; CHO-K1 cells stably expressing human or cynomolgus 4-1BB incubated with serially diluted ATOR-1017; detected with goat anti-hIg Fc-PE; MFI; conditions: one partner purified
# T2 construct: cynomolgus 4-1BB (TNFRSF9) from a gene in pcDNA3.1 (GenScript); also called CHO-cy4-1BB; cy4-1BB-CHO; source: CHO-K1, stably transfected (pcDNA3.1), on cells
# [4] = biological target: T3, human 4-1BB expressed on CHO-K1 cells (human, UniProt Q07011); assay: as above; conditions: one partner purified
# T3 construct: human 4-1BB (CD137, TNFRSF9) from a gene in pcDNA3.1 (GenScript); also called CHO-hu4-1BB; hu4-1BB-CHO; source: CHO-K1, stably transfected (pcDNA3.1), on cells
# [5] = biological target: T4, cynomolgus 4-1BB/TNFRSF9-His (Macaca fascicularis, UniProt A9YYE7); assay: BLI; Octet Red96 (ForteBio); who was immobilised not stated; conditions: both partners purified
# T4 construct: cynomolgus 4-1BB (TNFRSF9), recombinant His-tagged protein from Acro; source: bought: Acro
# human CD137-His = biological target: T5, human CD137-His (Homo sapiens, UniProt Q07011); assay: as above; conditions: both partners purified
# T5 construct: human 4-1BB (CD137, TNFRSF9), recombinant His-tagged protein from Acro; also called human 4-1BB; TNFRSF9; source: bought: Acro
# T5 sequence (Q07011 24-186): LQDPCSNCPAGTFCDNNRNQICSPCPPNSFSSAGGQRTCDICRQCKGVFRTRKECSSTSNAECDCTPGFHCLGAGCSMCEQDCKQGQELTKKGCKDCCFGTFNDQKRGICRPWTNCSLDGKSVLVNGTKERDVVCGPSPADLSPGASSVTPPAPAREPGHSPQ
# T3 sequence (Q07011 24-255): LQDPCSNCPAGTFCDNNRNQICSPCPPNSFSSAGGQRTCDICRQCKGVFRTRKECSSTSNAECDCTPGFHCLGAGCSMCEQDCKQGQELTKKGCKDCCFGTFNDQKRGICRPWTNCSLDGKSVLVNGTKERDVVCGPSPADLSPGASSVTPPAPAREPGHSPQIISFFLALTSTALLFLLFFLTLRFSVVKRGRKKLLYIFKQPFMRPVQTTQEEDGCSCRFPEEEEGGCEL
binder,measurement,setting,value
B1,Kd,ATOR-1017 (evunzekibart) [1],100 nM
B2,Kd,ATOR-1017 (evunzekibart) [2],200 nM
B3,Kd,ATOR-1017 (evunzekibart) [1],300 nM
B4,Kd,ATOR-1017 (evunzekibart) [1],400 nM
B5,EC50,[3],0.5 nM
same,EC50,[4],0.5 nM
same,Kd,[5],0.2 nM
same,Kd,human CD137-His,0.1 nM
